Results on seven molecules are retold here after patent US20240067748A1 (NONA BIOSCIENCES SUZHOU, published 2024).

Broadly, the Kd is the equilibrium constant for the complex coming apart. Broadly, the koff is the rate constant with which the complex falls apart. What is called kon is the rate constant with which the complex forms. As usually defined, the EC50 is the concentration that produces a half-maximal response.

Assay [1] deals with T1, human TROP2 protein (Sino Biological, #10428-H08H) (human, UniProt P09758 27-274).
T1 construct: bought protein; also called human Trop2 protein antigen (His tag); not shown: His tag
T1 sequence (looked up): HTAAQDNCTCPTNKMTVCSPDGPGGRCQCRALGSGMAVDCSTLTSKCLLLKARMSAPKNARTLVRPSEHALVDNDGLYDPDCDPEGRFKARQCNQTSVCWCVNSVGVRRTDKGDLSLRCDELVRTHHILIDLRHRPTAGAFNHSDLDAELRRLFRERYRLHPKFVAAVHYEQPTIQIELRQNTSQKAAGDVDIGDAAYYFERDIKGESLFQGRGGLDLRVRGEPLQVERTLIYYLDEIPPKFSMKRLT
The assay can be described thus: BLI, Octet RED96, AHC sensor. In short, it runs like this: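 Affinity and on/off rate constants came from real-time association and dissociation traces. The sensor carried human or monkey Trop2 loaded at 200 nM, and 40 nM antibody was applied for 3 min, then buffer for 5 min, at 30° C in PBS pH 7.4 containing 0.1% BSA and 0.02% Tween 20.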

The target of assay [2] is T2, monkey Trop2 protein (Sino Biological, #90893-C08H) (monkey, UniProt A0A2K5UE71 27-274).
T2 construct: bought protein; also called monkey Trop2 protein antigen (His tag)
T2 sequence: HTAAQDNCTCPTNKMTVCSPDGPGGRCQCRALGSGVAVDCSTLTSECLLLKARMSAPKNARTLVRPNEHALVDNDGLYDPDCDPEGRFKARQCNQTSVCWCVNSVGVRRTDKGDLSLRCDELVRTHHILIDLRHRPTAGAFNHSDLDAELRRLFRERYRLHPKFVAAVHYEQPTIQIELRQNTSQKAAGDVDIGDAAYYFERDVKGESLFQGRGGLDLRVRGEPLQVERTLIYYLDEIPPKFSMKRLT
The assay can be described thus: BLI, Octet RED96, AHC sensor. A digest of the protocol:
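Human or monkey Trop2 protein at 200 nM in PBS pH 7.4 with 0.1% BSA and 0.02% Tween 20 was loaded on the sensor. Association used 40 nM antibody for 3 min at 30° C, then dissociation ran 5 min in the same buffer. Signals were recorded in real time; KD, kon and koff were fitted.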
(In BLI a coated tip is dipped into the sample, and binding shifts an interference pattern.)

Another assay concerns the target T3, human Trop2 on cells (human, UniProt P09758 27-323).
T3 construct: whole, on cells; also called hTrop2; 293T-human Trop2 cells
T3 sequence (looked up): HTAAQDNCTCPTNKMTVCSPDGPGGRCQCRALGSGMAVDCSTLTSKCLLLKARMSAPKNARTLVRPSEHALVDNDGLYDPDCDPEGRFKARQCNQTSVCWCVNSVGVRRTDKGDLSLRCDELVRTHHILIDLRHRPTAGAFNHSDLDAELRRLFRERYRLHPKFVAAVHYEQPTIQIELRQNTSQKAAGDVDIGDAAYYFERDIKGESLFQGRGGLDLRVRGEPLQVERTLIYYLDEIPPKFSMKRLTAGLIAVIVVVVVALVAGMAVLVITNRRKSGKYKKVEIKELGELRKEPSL
The assay can be described thus: flow cytometry on BxPC-3 tumor cells. How it is done: BxPC-3 tumor cells (the Cell Bank of the Chinese Academy of Sciences, #TCHu 12) were digested with 3 mL of TrypLE, and the digestion was stopped with 7 mL of the corresponding medium. […] The cell solution was centrifuged, and the cells were washed once with PBS+[…] buffer. […] The cells were washed once with PBS+0.50% BSA. The cells were incubated at 4° C. for 1 h in the dark with 100 μL of Alexa Fluor 488 goat anti-human IgG (Life technologies, #A-11013) diluted at 1:1000, and washed twice with PBS+0.50% BSA. The cells were resuspended in 200 μL of PBS+0.50% BSA. The suspension was centrifuged at 4° C. for 5 min at 2000 rpm and tested using a FACS verse flow cytometer or NovoCyte flow cytometer (ACEA Biosciences). All procedures were performed on ice.
(In general: Flow cytometry measures light scatter and fluorescence of single cells or particles in a stream.)

For assay [3], the target named is T4, mouse Trop2-his protein (Sino Biological, #50922-M08H) (mouse, UniProt Q8BGV3 25-270).
T4 construct: bought protein; also called mouse Trop2 protein; not shown: his tag
T4 sequence (looked up): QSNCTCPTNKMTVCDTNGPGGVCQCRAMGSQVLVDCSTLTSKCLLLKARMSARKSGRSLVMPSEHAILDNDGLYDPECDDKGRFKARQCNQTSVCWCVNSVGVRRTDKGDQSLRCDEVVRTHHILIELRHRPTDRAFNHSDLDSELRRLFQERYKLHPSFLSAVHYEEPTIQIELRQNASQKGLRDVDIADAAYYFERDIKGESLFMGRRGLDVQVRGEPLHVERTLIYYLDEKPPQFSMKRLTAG
The experiment in a line: ELISA, plate coated with mouse Trop2-his protein, anti-human IgG (H+L)-HRP, OD450 nm. The protocol: An ELISA plate was coated with 100 μL of 1 μg/mL mouse Trop2-his protein (Sino Biological, #50922-M08H) in PBS at 4° C. overnight. The plate was blocked with 200 μL of PBST (PBS+0.05% tween 20)+2% BSA at 37° C. for 1 h. The plate was washed 4 times with PBST. 100 μL of Trop2 antibody diluted in a gradient (5-fold dilution, starting concentration: 33.33 nM) was added to the ELISA plate and the plate was incubated at 37° C. for 1 h. The plate was washed 4 times with PBST. 100 μL of anti-human IgG (H+L)-HRP (Sigma, #A8667) diluted in 1:4000 was added and the plate was incubated at 37° C. for 1 h. The plate was washed 4 times with PBST. 100 μL of TMB substrate (Invitrogen, #88-7025-88) was added and the plate was incubated at room temperature for 5 min, and then 50 μL of stop buffer (BBI life sciences, #E661006-0200) was added to stop the reaction. The OD450 nm reading was recorded using a microplate reader (Perkin Elmer, EnSpire).
(ELISA stands for enzyme-linked immunosorbent assay.)

B1: PR001139 (antibody, human IgG1, kappa, V domains shown)
VH: QVQLVESGGGVVQPGRSLRLSCAASGFTFSSFGMQWVRQGPGKGLEWVAVMWFDGSNKYYVDSVKGRFTISRDNSKNTLYLQMNSLRAEDTAVYYCARLDFSGWPLIDYWGQGTLVTVSS
VL: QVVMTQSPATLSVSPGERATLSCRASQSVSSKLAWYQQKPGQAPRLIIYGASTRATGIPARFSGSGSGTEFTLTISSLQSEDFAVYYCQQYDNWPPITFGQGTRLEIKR
notes: fully human IgG1/kappa; also called antibody No. (8)
In assay [1], B1 showed a Kd of 4.79 nM, a Response of 0.336, an off-rate (koff) of 0.000426 s⁻¹ and a kon of 89000 M⁻¹ s⁻¹. In addition, in assay [2], binding was put at a Kd of 7.75 nM, the Response came to 0.328, the off-rate constant (koff) was 0.000528 s⁻¹ and the on-rate (kon) came to 68100 M⁻¹ s⁻¹. For the same molecule, in the assay with human Trop2 on cells, the concentration for a half-maximal effect (EC50) worked out at 3.15 nM and the “Maximum MFI value” turned out to be 9360 MFI. Moreover, the binding result in assay [3] is “binds”.

B2: comparative example 2 antibody Tab (hRS7) (antibody, human IgG1, kappa, V domains shown)
VH: QVQLQQSGSELKKPGASVKVSCKASGYTFTNYGMNWVKQAPGQGLKWMGWINTYTGEPTYTDDFKGRFAFSLDTSVSTAYLQISSLKADDTAVYFCARGGFGSSYWYFDVWGQGSLVTVSS
VL: DIQLTQSPSSLSASVGDRVSITCKASQDVSIAVAWYQQKPGKAPKLLIYSASYRYTGVPDRFSGSGSGTDFTLTISSLQPEDFAVYYCQQHYITPLTFGAGTKVEIKR
notes: prepared on the basis of sacituzumab govitecan (ChemPartner, #T07-001); naked antibody
As to B2, in assay [1], the affinity, expressed as Kd, was 0.199 nM and the Response turned out to be 0.349. Besides, in assay [2], the dissociation constant Kd was determined as 0.137 nM and the Response came to 0.322. In addition, in the assay with human Trop2 on cells, the EC50 was found to be 2.08 nM and the “Maximum MFI value” turned out to be 8730 MFI.

B3: PR001128 (antibody, human IgG1, kappa, V domains shown)
VH: QVQLQESGPGLVKPSGTLSLTCAVSGGSISSSNWWSWVRQPPGKGLEWIGEIFHSGTTYYNPSLKSRVTILVDKSKNQFSLKLSSVTAADTAVYYCARDNTKSWDHFDHWGQGTLVTVSS
VL: EIVLTQSPATLSLSPGERATLSCRASQSVGSYLAWYQQKPGQAPSLLIYDASNRATGIPARFSGSGSGTDFTLTISSLEPEDFAVYYCQQRTNWYTFGQGTKLEIKR
notes: fully human IgG1/kappa; also called antibody No. (1)
On to B3, for which, in assay [1], the dissociation constant (Kd) was less than 0.001 nM, the Response stood at 0.402, the koff was less than 1e-07 s⁻¹ and the on-rate (kon) came out at 130000 M⁻¹ s⁻¹. In assay [2], the Kd was less than 0.001 nM, the Response was 0.384, the koff was less than 1e-07 s⁻¹ and the association rate constant (kon) was found to be 83500 M⁻¹ s⁻¹. Also, in the assay with human Trop2 on cells, a half-maximal effect (EC50) was put at 1.7 nM and the “Maximum MFI value” is 8410 MFI. In assay [3], the binding result is recorded as “no binding”.

B4: PR001130 (antibody, human IgG1, kappa, V domains shown)
VH: QVQLQESGPGLVKPSGTLSLTCAVSGDSISSHNWWSWVRQPPGKGLEWIGEIYHSGITSYNPSLKSRVTISVDKSKNQFSLKLNSVTAADTAMYYCARGSGVISYFDYWGQGTLVTVSS
VL: DIQMTQSPSTLSASVGDRVTITCRASQSIGNWLAWYQQKPGKAPKLLIYKASSLESGVPSRFSGSGSGTEFTLTISSLQPDDFATYYCQQYDSYSPITFGQGTRLEIKR
notes: fully human IgG1/kappa; also called antibody No. (2)
For the molecule B4, in assay [1], the Kd was less than 0.001 nM, the Response was 0.357, the koff is less than 1e-07 s⁻¹ and the kon came to 55200 M⁻¹ s⁻¹. Further, in assay [2], the dissociation constant Kd was less than 0.001 nM, the Response turned out to be 0.315, the koff is less than 1e-07 s⁻¹ and the kon is 37700 M⁻¹ s⁻¹. Besides, in the assay with human Trop2 on cells, the response was half-maximal at 3.85 nM (EC50) and the “Maximum MFI value” came out at 9960 MFI. In addition, in assay [3], the binding result was “no binding”.

B5: PR001142 (antibody, human IgG1, kappa, V domains shown)
VH: QVQLQESGPGLVKPSGTLSLTCAVSGDSISSNNWWSWVRQPPGKGLEWIGEIYPGGNPNYNPSLKSRVTISVDKSKNQFSLKLNSVTAADTAVYYCARGSGVISYFDYWGQGTLVTVSS
VL: DIQMTQSPSTLSASVGDRVTITCRASQSIGHWLAWYQQKPGKAPKLLIYKASSLESGVPSRFRGSGSGTEFTLTISSLQPDDFATYYCQQYSSYSPITFGQGSRLEIKR
notes: fully human IgG1/kappa; also called antibody No. (9)
As to B5, in assay [1], the Kd amounted to 0.323 nM, the Response turned out to be 0.39, the dissociation rate constant (koff) was 8.78e-05 s⁻¹ and the kon worked out at 272000 M⁻¹ s⁻¹. In addition, in assay [2], the dissociation constant (Kd) was found to be 0.26 nM, the Response is 0.382, the koff stood at 4.29e-05 s⁻¹ and the on-rate (kon) was 165000 M⁻¹ s⁻¹. In addition, in the assay with human Trop2 on cells, the EC50 was 1.15 nM, the “Maximum MFI value” was 10800 MFI and the “fold lower EC50 than the reference antibody hRS7” value was approximately 2 fold. In addition, in assay [3], the binding result is given as “no binding”.

B6: PR001165 (antibody, human IgG1, kappa, V domains shown)
VH: QVQLVESGGGVVQPGRSLRLSCEASGFTFSHYGMHWVRQAPGKGLEWVAVIWYDGIKTYYVESVKGRFTISRDNSKNTLNLQMNRLRAEDTAVYYCARDGGFGESNYYGLDVWGQGTTVTVSS
VL: DIQLTQSPSFLSASVGDRVTITCRASQGISSYLGWYQQKPGKAPKLLIYIASTLQSGVPSRFSGSGSGTEFTLTISSLQPEDFATYYCQQLNSYPYTFGQGTKLEIKR
notes: fully human IgG1/kappa; also called antibody No. (26)
On to B6, for which, in assay [1], the Kd was less than 0.001 nM, the Response stood at 0.38, the “fold lower KD than the reference antibody Tab (hRS7)” value is approximately 10 fold and the koff is less than 1e-07 s⁻¹. This molecule showed a kon in assay [1] of 164000 M⁻¹ s⁻¹. In assay [2], this molecule yielded a Kd of 0.26 nM, a Response of 0.393, a koff of 2.62e-05 s⁻¹ and an on-rate constant (kon) of 101000 M⁻¹ s⁻¹. For the same molecule, the binding result in assay [3] is recorded as “no binding”.

B7: PR001166 (antibody, human IgG1, kappa, V domains shown)
VH: QVQLQESGPGLVKPSETLSLTCAVSGYSISSGYFWAWIRQPPGKGLEWIGSIYHSGRTHYNPSLKSRVIISLDTSKNQFSLKLRSVTAADSAVYYCAREGYASGSYYWGQGTLVTVSS
VL: EIVMTQSPATLSVSPGERATLSCRSSQSVNNYLAWFQQKPGQAPRLLIYDSSTRATGIPARFSGSGSGTEFTLTISSLQSEDFAFYFCQQYENWPLTFGGGTKVEIKR
notes: fully human IgG1/kappa; also called antibody No. (27)
In assay [1], B7 displayed a Kd of less than 0.001 nM, a Response of 0.324, a koff of less than 1e-07 s⁻¹ and an on-rate (kon) of 470000 M⁻¹ s⁻¹. Moreover, in assay [2], the Kd was less than 0.001 nM, the Response was found to be 0.322, the koff was less than 1e-07 s⁻¹ and the kon stood at 316000 M⁻¹ s⁻¹. Besides, in the assay with human Trop2 on cells, the concentration for a half-maximal effect (EC50) stood at 0.716 nM, the “Maximum MFI value” was found to be 8390 MFI and the “fold lower EC50 than the reference antibody hRS7” value was approximately 2 fold. The binding result in assay [3] is listed as “binds”.
